Two molecules from PMC4243959, “Sequestration of latent TGF-β binding protein 1 into CADASIL-related Notch3-ECD deposits” (Acta Neuropathologica Communications, 2014) can be followed below.

For data set [1], the target named is recombinant human Notch3 encompassing aa 40-467 (N3EGF1-11-Fc) (human) (UniProt Q9UM47). Kind of data set: ELISA; solid-phase binding assay: 1 μg N3EGF1-11-Fc coated on Maxisorp plates in PBS overnight at 4°C, blocked with PBS/1% BSA; 50 μL conditioned supernatant of transfected HEK293T cells bound 1 h at room temperature; detection with anti-V5 or anti-LTBP-1 and anti-mouse-HRP; IgG1-Fc as control ligand. In general terms: In an ELISA, binding on a coated surface is turned into a signal by an enzyme label.

Data set [2] deals with the molecule itself. Kind of data set: scanning for intensely fluorescent targets (SIFT); purified proteins labelled with different fluorescent dyes, pre-cleared at 100,000 g, incubated pairwise in solution; 64 nM LTBP-1 variants, 160 nM N3EGF1-5; confocal single-particle measurement after 24 h.

With “full-length LTBP-1S (short human isoform of latent TGF-β binding protein 1, 1395 aa) with N-terminal HA tag and C-terminal V5-His tag (natural protein)”, the fold binding over the control ligand IgG-Fc in data set [1] turned out to be 4.9 fold.

B1: LTBP-1ΔN containing a C-terminal V5-His tag (LTBP-1ΔN_V5) (domain or fragment, human, UniProt Q14766-2 528-1395, looked up)
chain: APEASTSSASQVIAPTQVTEINECTVNPDICGAGHCINLPVRYTCICYEGYRFSEQQRKCVDIDECTQVQHLCSQGRCENTEGSFLCICPAGFMASEEGTNCIDVDECLRPDVCGEGHCVNTVGAFRCEYCDSGYRMTQRGRCEDIDECLNPSTCPDEQCVNSPGSYQCVPCTEGFRGWNGQCLDVDECLEPNVCANGDCSNLEGSYMCSCHKGYTRTPDHKHCRDIDECQQGNLCVNGQCKNTEGSFRCTCGQGYQLSAAKDQCEDIDECQHRHLCAHGQCRNTEGSFQCVCDQGYRASGLGDHCEDINECLEDKSVCQRGDCINTAGSYDCTCPDGFQLDDNKTCQDINECEHPGLCGPQGECLNTEGSFHCVCQQGFSISADGRTCEDIDECVNNTVCDSHGFCDNTAGSFRCLCYQGFQAPQDGQGCVDVNECELLSGVCGEAFCENVEGSFLCVCADENQEYSPMTGQCRSRTSTDLDVDVDQPKEEKKECYYNLNDASLCDNVLAPNVTKQECCCTSGVGWGDNCEIFPCPVLGTAEFTEMCPKGKGFVPAGESSSEAGGENYKDADECLLFGQEICKNGFCLNTRPGYECYCKQGTYYDPVKLQCFDMDECQDPSSCIDGQCVNTEGSYNCFCTHPMVLDASEKRCIRPAESNEQIEETDVYQDLCWEHLSDEYVCSRPLVGKQTTYTECCCLYGEAWGMQCALCPLKDSDDYAQLCNIPVTGRRQPYGRDALVDFSEQYTPEADPYFIQDRFLNSFEELQAEECGILNGCENGRCVRVQEGYTCDCFDGYHLDTAKMTCVDVNECDELNNRMSLCKNAKCINTDGSYKCLCLPGYVPSDKPNYCTPLNTALNLEKDSDLE
modifications: fluorescent dye label (dye and site not stated)
notes: numbers count on: the short isoform of 1395 aa; source: HEK293E, purified (metal-ion matrix, via His tag); not shown: V5, C-terminal, kept; His, C-terminal, kept
Regarding B1, the binding result in data set [2] is “binds”.
